Data as given in patent US20100093563A1 (published 2010).

Target: T1, ovalbumin (UniProt P01012 2-386)
T1 sequence: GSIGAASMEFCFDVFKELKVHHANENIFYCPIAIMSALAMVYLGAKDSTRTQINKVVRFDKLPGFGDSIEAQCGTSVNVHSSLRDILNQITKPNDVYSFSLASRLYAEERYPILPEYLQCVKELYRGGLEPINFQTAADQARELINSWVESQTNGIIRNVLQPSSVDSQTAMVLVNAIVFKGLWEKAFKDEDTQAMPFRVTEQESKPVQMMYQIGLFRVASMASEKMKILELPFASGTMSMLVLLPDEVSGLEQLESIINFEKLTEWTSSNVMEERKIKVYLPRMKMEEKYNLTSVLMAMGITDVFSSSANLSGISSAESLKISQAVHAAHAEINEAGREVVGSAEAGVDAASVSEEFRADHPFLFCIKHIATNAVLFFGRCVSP
Assay: phage ELISA, ovalbumin coated 100 ng per well, anti-HA or anti-M13 detection

B1: 2G12 domain exchanged Fab fragment displayed on phage (Fab, V domains shown)
VH: EVQLVESGGGLVKAGGSLILSCGVSNFRISAHTMNWVRRVPGGGLEWVASISTSSTYRDYADAVKGRFTVSRDDLEDFVYLQMHKMRVEDTAIYYCARKGSDRLSDNDPFDAWGPGTVVTVSP
VL: GVVMTQSPSTLSASVGDTITITCRASQSIETWLAWYQQKPGKAPKLLIYKASTLKTGVPSRFSGSGSGTEFTLTISGLQFDDFATYHCQHYAGYSATFGQGTRVEIKR
notes: also called 2G12 Fab; phage from 2G12 pCAL G13 vector
binding result: no binding
